Literature values, collected in publication PMC5576036.

Experiments:
[1] = molecular target: CD25 (IL-2Rα) (Homo sapiens) (UniProt P01589)
[2] = molecular target: CD122 (IL-2Rβ) (Homo sapiens) (UniProt P14784)
[3] = molecular target: intermediate-affinity IL-2R (CD122/CD132) (Homo sapiens) (UniProt P14784)

Chain of UniProt P01589 (P01589 22-240): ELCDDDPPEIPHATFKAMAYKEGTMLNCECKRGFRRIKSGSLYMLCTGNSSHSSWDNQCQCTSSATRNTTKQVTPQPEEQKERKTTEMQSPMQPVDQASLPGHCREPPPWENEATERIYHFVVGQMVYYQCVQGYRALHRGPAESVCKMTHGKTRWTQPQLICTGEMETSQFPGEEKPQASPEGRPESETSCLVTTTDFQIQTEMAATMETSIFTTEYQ

**Q.** What does the source list for IL-2 (from UniProt P60568)?
**A.** Kd [1]: 10 nM; Kd [2]: 100 nM; Kd [3]: 1 nM
